Data set [1] can be described thus: folding stability dG unfold (combined trypsin and chymotrypsin); higher = more stable. A digest of the protocol: (§1)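 Digests were run with trypsin and chymotrypsin at 11 concentrations in threefold dilutions, plus a no-protease condition, on designed mini-proteins in a PA-tagged cDNA display construct. The mini-proteins were under 80 residues, had no cysteine, and were kept only when AlphaFold2 dimer inter-PAE was above 15. After sequencing, Bayesian fitting of the counts gave K50, from which unfolding free energy was derived against a sequence-predicted unfolded-state K50 and a shared folded-state K50, per protease or combined.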

Data set [2] is described as follows: folding stability dG unfold from trypsin proteolysis; higher = more stable. Put shortly: as §1
Data set [3] is described as follows: folding stability dG unfold from chymotrypsin proteolysis; higher = more stable. A digest of the protocol:
as §1

± gives the half width of the 95% confidence interval.

As for “SAGGSAGGSAGGKEYEVIEVEVNMTIEELKKLFPNVVEIKVEKNENGELKVTIIIKKDKSAGGSAGGSAGGS [r10_764_TrROS_Hall]”, the “folding stability dG unfold” value in data set [1] came out at 2.31 ± 0.12 kcal/mol; in data set [2] it was 1.92 ± 0.08 kcal/mol; in data set [3], 2.5 ± 0.11 kcal/mol.

“SAGGSAGGSAGGKEYKVVEFEVLLEDPEPVKAVALIDPDGPVRVFLGDKVYTFKRDELGSAGGSAGGSAGGS [r10_649_TrMRF]”: the “folding stability dG unfold” value in data set [1] is 0.766 ± 0.073 kcal/mol; in data set [2], -0.081 ± 0.071 kcal/mol; in data set [3] it was 1.13 ± 0.13 kcal/mol.

Take “SAGGSAGGSAGGKFEIVEVKEEYTLPNGKKVKVFTVKNKDTGKEITFIVDSNGNLKPYPSAGGSAGGSAGGS [r10_1123_TrROS_Hall]”: the “folding stability dG unfold” value is 2.65 ± 0.11 kcal/mol in data set [1], 2.72 ± 0.13 kcal/mol in data set [2] and 2.602 ± 0.025 kcal/mol in data set [3].

Regarding “SAGGSAGGSAGGKFKIVKVEKVKNENGEEYVRVYLYNKDGKPVKEFTMSKEELEKLLKELSAGGSAGGSAGG [r7_891_TrROS_Hall]”, the “folding stability dG unfold” value was 2.88 ± 0.15 kcal/mol in data set [1], 2.72 ± 0.11 kcal/mol in data set [2] and 2.96 ± 0.051 kcal/mol in data set [3].

“SAGGSAGGSAGGKFKPGQTIKIKLKVKVKVNGKEYEFEKELEIKIKPKVTMSEEELKKKSAGGSAGGSAGGS [r10_175_TrROS_Hall]”: the figures for the “folding stability dG unfold” value in data set [1], in data set [2] and in data set [3] were 1.39 ± 0.26 kcal/mol, 0.169 ± 0.16 kcal/mol and 2.12 ± 0.09 kcal/mol, respectively.

With “SAGGSAGGSAGGKGKKVTIEIHFFFKSPQEMKHWANTLAKELPGLDVEIKVEWIPLEDMKSAGGSAGGSAGG [r7_465_TrROS]”, the results for the “folding stability dG unfold” value in data set [1], in data set [2] and in data set [3] were 2.75 ± 0.29 kcal/mol, 2.06 ± 0.14 kcal/mol and 3.26 ± 0.14 kcal/mol, respectively.

As for “SAGGSAGGSAGGKIIEVKEENGEVYLLVEVDGKKEVIKFPKGAKLEEIKVDVKEVKVLKPSAGGSAGGSAGG [r7_373_TrROS_Hall]”, the “folding stability dG unfold” value was 0.539 ± 0.12 kcal/mol in data set [1], -0.0364 ± 0.065 kcal/mol in data set [2] and 0.563 ± 0.1 kcal/mol in data set [3].

In the case of “SAGGSAGGSAGGKIKVPPGAIILVETESGEWKEIKPGDEIELKNSKVYIFNENGEKIELPSAGGSAGGSAGG [r7_54_TrROS_Hall]”, the figures for the “folding stability dG unfold” value in data set [1], in data set [2] and in data set [3] were 1.28 ± 0.18 kcal/mol, 0.82 ± 0.11 kcal/mol and 1.28 ± 0.092 kcal/mol, respectively.

For “SAGGSAGGSAGGKIVIELPKELEGLTAEELAELLKKEFGEKGLKVTVVEKDGKLYLVIDSAGGSAGGSAGGS [r10_579_TrROS_Hall]”, the “folding stability dG unfold” value in data set [1] is 3.5 ± 0.24 kcal/mol; in data set [2] it was 3.43 ± 0.25 kcal/mol; in data set [3], 3.34 ± 0.15 kcal/mol.

For the sequence “SAGGSAGGSAGGKIVKIEFDKETKEIKITLPNGKKITISKEDLKNMKIEIKVYPKKKKKKSAGGSAGGSAGG [r7_98_TrROS_Hall]”, the “folding stability dG unfold” value was determined as 1.8 ± 0.35 kcal/mol in data set [1], 0.774 ± 0.093 kcal/mol in data set [2] and 2.45 ± 0.1 kcal/mol in data set [3].

Consider “SAGGSAGGSAGGKKIIIVVPKEEMTEEELKKLIEELPPGEEIEIEIIVVPPPPPPPKEKKSAGGSAGGSAGG [r7_979_TrROS_Hall]”, for which the “folding stability dG unfold” value in data set [1] turned out to be 1.45 ± 0.27 kcal/mol; in data set [2], 0.385 ± 0.077 kcal/mol; in data set [3], 1.92 ± 0.23 kcal/mol.

On to “SAGGSAGGSAGGKKITIKNENGETFTVTEIVKYDEETKEFYIKVEVNGKTYLFKVNLEDLSAGGSAGGSAGG [r7_236_TrROS_Hall]”, for which the “folding stability dG unfold” value is 3.2 ± 0.05 kcal/mol in data set [1], 1.81 ± 0.059 kcal/mol in data set [2] and 3.572 ± 0.024 kcal/mol in data set [3].

Regarding “SAGGSAGGSAGGKKKIKVKVTVYNKNGKPVAEFEFEFETEEEALEAAKKLGLPVRVEKESAGGSAGGSAGGS [r10_958_TrROS_Hall]”, the figures for the “folding stability dG unfold” value in data set [1], in data set [2] and in data set [3] were 2.28 ± 0.15 kcal/mol, 1.71 ± 0.11 kcal/mol and 2.57 ± 0.069 kcal/mol, respectively.

For “SAGGSAGGSAGGKKPKPIKVKVLKYYKNGKIEEKEYTFESPEDLEEFIKANPEVKVLEISSAGGSAGGSAGG [r11_802_TrMRF]”, the “folding stability dG unfold” value in data set [1] stood at 4.58 ± 0.17 kcal/mol; in data set [2] it was 3.04 ± 0.34 kcal/mol; in data set [3], 4.76 ± 0.082 kcal/mol.

As for “SAGGSAGGSAGGKKTIEIMIFYDPGDPERAKEKARDIANTLQARFPNVTVKITVFRFPNSAGGSAGGSAGGS [r10_223_TrROS]”, the “folding stability dG unfold” value was 2.25 ± 0.14 kcal/mol in data set [1], 1.87 ± 0.074 kcal/mol in data set [2] and 2.5 ± 0.048 kcal/mol in data set [3].

“SAGGSAGGSAGGKKTLKLPVKITPVKDGLLITLPDGTPILVPKNVTVETTDTTAYVTIGSAGGSAGGSAGGS [r10_305_TrMRF]”: the “folding stability dG unfold” value in data set [1] was 0.0124 ± 0.2 kcal/mol; in data set [2] it was 0.21 ± 0.067 kcal/mol; in data set [3] it was -0.375 ± 0.28 kcal/mol.

For the sequence “SAGGSAGGSAGGKKTVKIEIEMPVEELLKKLKFPEGITSVRIIERDENGYLRIEIEVKLSAGGSAGGSAGGS [r10_352_TrROS_Hall]”, the results for the “folding stability dG unfold” value in data set [1], in data set [2] and in data set [3] were 1.31 ± 0.23 kcal/mol, 1.55 ± 0.05 kcal/mol and 1.32 ± 0.078 kcal/mol, respectively.

For “SAGGSAGGSAGGKKVIKVKVRIYPVDGSFEEKEVEAESLEELLEKVLEETHPESLIFIGSAGGSAGGSAGGS [r10_145_TrMRF]”, the “folding stability dG unfold” value in data set [1] is 0.59 ± 0.16 kcal/mol; in data set [2], 0.912 ± 0.086 kcal/mol; in data set [3], 0.14 ± 0.067 kcal/mol.

Consider “SAGGSAGGSAGGKKYEITRILSIEETEDGRIRILIETKTGIIEFDDISEIPPEIRELLGSAGGSAGGSAGGS [r10_748_TrMRF]”, for which the “folding stability dG unfold” value in data set [1] stood at 2.73 ± 0.055 kcal/mol; in data set [2], 2.82 ± 0.075 kcal/mol; in data set [3] it was 2.668 ± 0.021 kcal/mol.

With “SAGGSAGGSAGGKKYKITVPFKTKDGSGKPITSNFGKKKLEEILKKHPELKPAIEKALKKSAGGSAGGSAGG [r7_637_TrMRF]”, the “folding stability dG unfold” value is 0.771 ± 0.29 kcal/mol in data set [1], -0.163 ± 0.33 kcal/mol in data set [2] and 1.37 ± 0.22 kcal/mol in data set [3].

For the sequence “SAGGSAGGSAGGKKYKPVKKIKVNGKTYTIIKKDGKYIIYDEKTKKKIVIKPGEKIKIKSAGGSAGGSAGGS [r10_559_TrROS_Hall]”, the “folding stability dG unfold” value turned out to be 1.83 ± 0.34 kcal/mol in data set [1], 0.621 ± 0.045 kcal/mol in data set [2] and 2.21 ± 0.034 kcal/mol in data set [3].

With “SAGGSAGGSAGGKLPPGQPIKATIEIYIFMISYDGGEPKIHEFPITIEHTFRLPDPDALSAGGSAGGSAGGS [r10_745_TrROS]”, the results for the “folding stability dG unfold” value in data set [1], in data set [2] and in data set [3] were 3.42 ± 0.17 kcal/mol, 2.14 ± 0.086 kcal/mol and 3.9 ± 0.091 kcal/mol, respectively.

On to “SAGGSAGGSAGGKLTIVIEGMSEEEVKALAEALRKAGLEIEVTVVPVEVKEPELPEEEKSAGGSAGGSAGGS [r10_361_TrROS_Hall]”, for which the results for the “folding stability dG unfold” value in data set [1], in data set [2] and in data set [3] were 2.04 ± 0.12 kcal/mol, 1.57 ± 0.081 kcal/mol and 2.29 ± 0.053 kcal/mol, respectively.

Take “SAGGSAGGSAGGKPEIKLVEVENEDGSKLIKIEVNGKTIIIENVKTEEELRELLKKLGIESAGGSAGGSAGG [r7_91_TrROS_Hall]”: the “folding stability dG unfold” value in data set [1] was found to be 2.64 ± 0.25 kcal/mol; in data set [2] it was 2.08 ± 0.14 kcal/mol; in data set [3], 2.66 ± 0.17 kcal/mol.

Regarding “SAGGSAGGSAGGKPFKVLSVEPLEIGDKKYLRVRFEDGRVYEFPVSFDFGPDGNNVLPVESAGGSAGGSAGG [r7_931_TrMRF]”, the entries for the “folding stability dG unfold” value in data set [1], in data set [2] and in data set [3] were 2.37 ± 0.043 kcal/mol, 1.93 ± 0.041 kcal/mol and 2.59 ± 0.045 kcal/mol, respectively.

Regarding “SAGGSAGGSAGGKPITIKLEETGETATIDEDNGIITITNKDGSKYQITFKDGKLIIKKISAGGSAGGSAGGS [r10_568_TrROS_Hall]”, the “folding stability dG unfold” value in data set [1] was 2.79 ± 0.097 kcal/mol; in data set [2], 1.99 ± 0.076 kcal/mol; in data set [3] it was 3.1 ± 0.056 kcal/mol.

In the case of “SAGGSAGGSAGGKPKKVVIYIELTPEQEEAIKKGKSLEEVVEELIKEAEKKGLEVEIVGSAGGSAGGSAGGS [r10_890_TrROS_Hall]”, the “folding stability dG unfold” value in data set [1] turned out to be 1.62 ± 0.14 kcal/mol; in data set [2], 1.2 ± 0.029 kcal/mol; in data set [3] it was 1.93 ± 0.067 kcal/mol.

On to “SAGGSAGGSAGGKPKPIKIEVYYDEKTGKLLVKVTLPNGKPVTLEFDDIGDIDEVKKAAGSAGGSAGGSAGG [r7_41_TrMRF]”, for which the results for the “folding stability dG unfold” value in data set [1], in data set [2] and in data set [3] were 2.44 ± 0.18 kcal/mol, 1.36 ± 0.092 kcal/mol and 2.97 ± 0.16 kcal/mol, respectively.

As for “SAGGSAGGSAGGKPKTIRIKVYNEETGEVVTLEFPEGMSLEEVKKLLEALPNLKVVEIEPSAGGSAGGSAGG [r7_624_TrROS_Hall]”, the “folding stability dG unfold” value worked out at 4.45 ± 0.24 kcal/mol in data set [1], 4.79 ± 0.41 kcal/mol in data set [2] and 3.62 ± 0.11 kcal/mol in data set [3].

“SAGGSAGGSAGGKPKVILLEGIKKIEVKDGKVTIEADEPVLLVIDEDGNVHIYRLPKEDLSAGGSAGGSAGG [r7_29_TrROS_Hall]”: the results for the “folding stability dG unfold” value in data set [1], in data set [2] and in data set [3] were 1.35 ± 0.11 kcal/mol, 1.03 ± 0.07 kcal/mol and 1.38 ± 0.099 kcal/mol, respectively.

Take “SAGGSAGGSAGGKPTITITVELEDGYKATFEYNEETDKITVKIFNKNGELVEEFEFEIKSAGGSAGGSAGGS [r10_1044_TrROS_Hall]”: the “folding stability dG unfold” value stood at 2.87 ± 0.21 kcal/mol in data set [1], 1.81 ± 0.12 kcal/mol in data set [2] and 3.24 ± 0.21 kcal/mol in data set [3].

Consider “SAGGSAGGSAGGKPYIITLPNMKREVVFENSALVEFEDGSVIAAFENNVIVFFPVPEDALSAGGSAGGSAGG [r7_29_TrMRF]”, for which the “folding stability dG unfold” value in data set [1] was found to be 0.578 ± 0.12 kcal/mol; in data set [2] it was 0.121 ± 0.042 kcal/mol; in data set [3] it was 0.786 ± 0.093 kcal/mol.

Consider “SAGGSAGGSAGGKPYVIVPVTVRFTIDIPKDHPLLKELDINPEDVKIEFEFSFLGEVPASAGGSAGGSAGGS [r10_82_TrMRF]”, for which the “folding stability dG unfold” value is 2.95 ± 0.12 kcal/mol in data set [1], 2.66 ± 0.096 kcal/mol in data set [2] and 2.97 ± 0.089 kcal/mol in data set [3].

As for “SAGGSAGGSAGGKTIVIEVKEEDIEEIIEAAKKAGADEVIIYNKKTNKKYKIKDGKIEPVSAGGSAGGSAGG [r7_564_TrROS_Hall]”, the “folding stability dG unfold” value stood at 1.81 ± 0.1 kcal/mol in data set [1], 1.34 ± 0.032 kcal/mol in data set [2] and 2.02 ± 0.045 kcal/mol in data set [3].

In the case of “SAGGSAGGSAGGKTIVLLDEETNELVTIEIDEETGEVKITVVRLKDGKLETKTETIKLPSAGGSAGGSAGGS [r10_756_TrROS_Hall]”, the “folding stability dG unfold” value was 2.07 ± 0.19 kcal/mol in data set [1], 1.93 ± 0.091 kcal/mol in data set [2] and 2.23 ± 0.21 kcal/mol in data set [3].

The record behind these values is the supplement of paper PMC12764529.
